± gives the uncertainty stated by the source.
B1: Cytoplasmic polyadenylation element-binding protein 2, residues 513 to 575; numbered along this chain, Q7Z5Q1 (parent)
chain: KRVEVKPYVLDDQMCDECQGARCGGKFAPFFCANVTCLQYYCEFCWANIHSRAGREFHKPLVK

Variants of: B1
Assay: abundance fitness (aPCA) (normalised: wild type 0, dead -1); higher = more abundant; growth selection in yeast, the domain comes from the species named
Conditions: Homo sapiens

Variant	abundance fitness
Q39I	-0.573 ± 0.1
Q39N	-0.103 ± 0.081
Q39Y	-0.369 ± 0.1
Q39A	0.1 ± 0.04
Q39G	0.024 ± 0.051
Q39M	0.078 ± 0.074
D11G	-0.041 ± 0.043
D11V	-0.075 ± 0.034
D11P	-0.183 ± 0.083
D11W	-0.238 ± 0.055
D11C	-0.205 ± 0.067
D11N	-0.028 ± 0.05
D11Q	-0.037 ± 0.069
D12K	0.012 ± 0.082
D12G	-0.066 ± 0.051
D12S	-0.146 ± 0.049
D12R	-0.182 ± 0.045
D12Y	-0.273 ± 0.056
D12H	0.049 ± 0.056
K6S	-0.085 ± 0.039
K6R	-0.128 ± 0.034

Variant	abundance fitness
K6A	-0.045 ± 0.038
K6M	-0.028 ± 0.049
K6H	-0.225 ± 0.06
K6E	-0.069 ± 0.048
K6Y	-0.382 ± 0.1
K6W	-0.315 ± 0.042
K6F	-0.337 ± 0.066
C18T	-0.643 ± 0.093
C18A	-0.674 ± 0.081
C18I	-1.05 ± 0.23
C18W	-1.07 ± 0.11
C18R	-0.641 ± 0.05
C18F	-0.954 ± 0.15
C18P	-0.84 ± 0.092
C37I	-0.568 ± 0.16
C37H	-0.352 ± 0.29
C37F	-0.85 ± 0.14
C37E	-0.76 ± 0.083
C37S	-0.54 ± 0.059
C37A	-0.82 ± 0.06
C37Y	-0.806 ± 0.12

Variant	abundance fitness
C37T	-1 ± 0.12
V9A	-0.02 ± 0.043
V9C	-0.002 ± 0.071
V9E	-0.022 ± 0.052
V9K	-0.003 ± 0.055
V9T	-0.036 ± 0.062
V9D	0.083 ± 0.064
V9H	0.051 ± 0.099
V62I	-0.103 ± 0.1
C42E	-0.951 ± 0.4
C42H	-0.818 ± 0.068
V3P	-0.028 ± 0.056
V3A	0.059 ± 0.055
V3F	-0.197 ± 0.08
V3Y	-0.37 ± 0.12
V3N	-0.207 ± 0.096
K1N	0.143 ± 0.078
K1W	-0.985 ± 0.17
K1H	-0.599 ± 0.23
K1I	-0.215 ± 0.21
K1M	-0.184 ± 0.084

Variant	abundance fitness
K1A	-0.32 ± 0.11
K1D	-0.01 ± 0.066
K1G	-0.218 ± 0.053
A33T	0.021 ± 0.062
A33K	-0.147 ± 0.085
A33R	-0.124 ± 0.041
A33Y	0.009 ± 0.089
A33N	0.002 ± 0.07
K63S	-0.034 ± 0.13
K63N	-0.091 ± 0.11
K63P	0.367 ± 0.3
K63D	-0.641 ± 0.21
K63H	-0.014 ± 0.11
K63Y	-0.408 ± 0.14
E4P	-0.145 ± 0.045
E4I	-0.289 ± 0.097
E4C	-0.353 ± 0.073
E4G	-0.234 ± 0.059
E4K	-0.239 ± 0.063
E4Q	-0.099 ± 0.053
L61W	-0.137 ± 0.045

— the Human Domainome abundance scans (Beltran et al. 2025)
